Reference: patent US20020022239A1, “PHYTOFLUORS AS FLUORESCENT LABELS” (priority 1999, published 2002)
Numbering of substitutions follows the chain as printed. Numbers in names are those of the source.

B1: cph2a (N390): first 390 amino acid residues of Cph2 (SLL0821), N-terminal phytochrome-related domain (protein, UniProt Q55434 1-390, looked up, fragment)
chain: MNPNRSLEDFLRNVINKFHRALTLRETLQVIVEEARIFLGVDRVKIYKFASDGSGEVLAEAVNRAALPSLLGLHFPVEDIPPQAREELGNQRKMIAVDVAHRRKKSHELSGRISPTEHSNGHYTTVDSCHIQYLLAMGVLSSLTVPVMQDQQLWGIMAVHHSKPRRFTEQEWETMALLSKEVSLAITQSQLSRQVHQQQVQEALVQRLETTVAQYGDRPETWQYALETVGQAVEADGAVLYIAPDLTGSVAQHYQWNLRFDWGNWLETSLWQELMRGQPSAAMEPMAAVQSTWEKPRPFTSVAPLPPTNCVPHGYTLGELEQRSDWIAPPESLSAENFQSFLIVPLAADQQWVGSLILLRKEKSLVKHWAGKRGIDRRNILPRLSFEAWE
B2: Cph2-N197: Strep-Tagged N-terminal 197 amino acid region of Cph2 (SEQ ID NO: 9), module 1 only (protein)
chain: KLAVRAISRLQSLPGGDIGALCDTVVEDVQRLTGYDRVMVYQFHEDDHGEVVSEIRRSDLEPYLGLHYPATDIPQAARFLFKQNRVRMICDCNATPVKVVQSEELKRPLCLVNSTLRAPHGCHTQYMANMGSVASLALAIVVKGKDSSKLWGLVVGHHCSPRYVPFPLRYACEFLMQAFGLQLQMELQLASQLAEK
modifications: Strep-Tag
B3: Cph1 (N514) R222G: site-directed single mutant R222G of Cph1 (N514) (protein, UniProt Q55168 1-514, looked up, variant R222G)
chain: MATTVQLSDQSLRQLETLAIHTAHLIQPHGLVVVLQEPDLTISQISANCTGILGRSPEDLLGRTLGEVFDSFQIDPIQSRLTAGQISSLNPSKLWARVMGDDFVIFDGVFHRNSDGLLVCELEPAYTSDNLPFLGFYHMANAALNRLRQQANLRDFYDVIVEEVRRMTGFDRVMLYRFDENNHGDVIAEDKRDDMEPYLGLHYPESDIPQPARRLFIHNPIGVIPDVYGVAVPLTPAVNPSTNRAVDLTESILRSAYHCHLTYLKNMGVGASLTISLIKDGHLWGLIACHHQTPKVIPFELRKACEFFGRVVFSNISAQEDTETFDYRVQLAEHEAVLLDKMTTAADFVEGLTNHPDRLLGLTGSQGAAICFGEKLILVGETPDEKAVQYLLQWLENREVQDVFFTSSLSQIYPDAVNFKSVASGLLAIPIARHNFLLWFRPEVLQTVNWGGDPNHAYEATQEDGKIELHPRQSFDLWKEIVRLQSLPWQSVEIQSALALKKAIVNLILRQAEE
modifications: N514 fragment
B4: Cph1 (N514) DR171/2AA: double mutant D171A/R172A of Cph1 (N514) (protein, UniProt Q55168 1-514, looked up, variant D171A R172A)
chain: B3 chain with D171A, R172A, G222R
modifications: N514 fragment
B5: Cph1 (N514) DR171/2AG: double mutant D171A/R172G of Cph1 (N514) (protein, UniProt Q55168 1-514, looked up, variant D171A R172G)
chain: B3 chain with D171A, R172G, G222R
modifications: N514 fragment
B6: Cph1 (N514) Wild Type: N514 deletion mutant of Synechocystis sp. PCC 6803 apophytochrome Cph1, wild-type sequence (protein, UniProt Q55168 1-514, looked up, fragment)
chain: B3 chain with G222R
B7: Cph1 (N514) D171A: site-directed single mutant D171A of Cph1 (N514) (protein, UniProt Q55168 1-514, looked up, variant D171A)
chain: B3 chain with D171A, G222R
modifications: N514 fragment

Test: Covalent bilin (PCB) binding of recombinant apophytochrome polypeptides upon incubation with PCB (zinc blot)
Conditions: for covalent binding of PCB: incubation with PCB; for PCB Binding: site-directed mutants of Cph1 (N514)
Source text: This work thus confirms that the structural motif illustrated in FIG. 2 represents the bilin-binding domain of the ‘phytochrome superfamily’ from which new phytofluors of different colors can be devised.
Based on the multiple sequence alignment shown in FIG. 2, and using methods described in W098/04700, a bacterial expression vector express a Strep-Tagged version of N-terminal 197 amino acid region of Cph2 (Cph2-N197) that encompassed ‘module 1’ only was constructed (see, FIG. 3).
To address the importance of conserved residues in the bilin lyase domain of Cph1 to bilin attachment and spectral properties of its bilin adducts, site-directed mutagenesis of some of these residues were undertaken. Charged residues D171, R172, E189 and R222 of Cph1 (N514) were mutagenized in the initial studies.

Molecule | covalent binding of PCB | PCB Binding
B1 | covalently bind PCB | 
B2 | yielded a covalent biliprotein adduct | 
B3 |  | yes
B4 |  | no
B5 |  | no
B6 |  | yes
B7 |  | yes
